Results published in the Human Domainome abundance scans (Beltran et al. 2025).
± gives the uncertainty stated by the source.

B1: Far upstream element-binding protein 3, residues 75 to 150; numbered along this chain, Q96I24 (parent)
chain: RTVITEEFKVPDKMVGFIIGRGGEQISRIQAESGCKIQIASESSGIPERPCVLTGTPESIEQAKRLLGQIVDRCRN

Variants of: B1
Assay: abundance fitness (aPCA) (normalised: wild type 0, dead -1); higher = more abundant; growth selection in yeast, the domain comes from the species named
Conditions: Homo sapiens

Variant | abundance fitness
RTVITEEFKVPDKMVGFIIGRGGEQISRIQAESGCKIQIASESSGIPERPCFLTGTPESIEQAKRLLGQIVDRCRN [V52F] | -0.107 ± 0.061
RTVITEEFKVPDKMVGFIIGRGGEQISRIQAESGCKIQIASESSGIPERPCPLTGTPESIEQAKRLLGQIVDRCRN [V52P] | -0.931 ± 0.069
RTVITEEFKVPDKMVGFIIGRGGEQISRIQAESGCKIQIASESSGIPERPCLLTGTPESIEQAKRLLGQIVDRCRN [V52L] | -0.023 ± 0.033
RTVITEEFKVPDKMVGFIIGRGGEQISRIQAESGCKIQIASESSGIPERPCDLTGTPESIEQAKRLLGQIVDRCRN [V52D] | -0.16 ± 0.049
RTVITEEFKVPDKMVGFIIGRGGEQISRIQAESGCKIQIASESSGIPERPCELTGTPESIEQAKRLLGQIVDRCRN [V52E] | -0.073 ± 0.037
RTVITEEFKVPDKMVGFIIGRGGEQISRIQAESGCKIQIASESSGIPERPCCLTGTPESIEQAKRLLGQIVDRCRN [V52C] | -0.093 ± 0.051
RTVITEEFKVPDKMVGFIIGRGGEQISRIQAESGCKIQIASESSGIPERPCILTGTPESIEQAKRLLGQIVDRCRN [V52I] | -0.034 ± 0.057
RTVITEEFKVPDKMVGFIIGRGGEQISRIQAESGCKIQIASESSGIPERPCMLTGTPESIEQAKRLLGQIVDRCRN [V52M] | -0.039 ± 0.046
RTVITEEFKVPDKMVGFIIGRGGEQISRIQAESGCKIQIASESSGIPERPCALTGTPESIEQAKRLLGQIVDRCRN [V52A] | -0.029 ± 0.033
RTVITEEFKVPDKMVGFIIGRGGEQISRIQAESGCKIQIASESSGIPERPCHLTGTPESIEQAKRLLGQIVDRCRN [V52H] | -0.064 ± 0.061
RTVITEEFKVPDKMVGFIIGRGGEQISRIQAESGCKIQIASESSGIPERPCNLTGTPESIEQAKRLLGQIVDRCRN [V52N] | -0.133 ± 0.056
RTVITEEFKVPDKMVGFIIGRGGEQISRIQAESGCKIQIASESSGIPERPTVLTGTPESIEQAKRLLGQIVDRCRN [C51T] | -0.108 ± 0.043
RTVITEEFKVPDKMVGFIIGRGGEQISRIQAESGCKIQIASESSGIPERPWVLTGTPESIEQAKRLLGQIVDRCRN [C51W] | -0.147 ± 0.034
RTVITEEFKVPDKMVGFIIGRGGEQISRIQAESGCKIQIASESSGIPERPVVLTGTPESIEQAKRLLGQIVDRCRN [C51V] | -0.009 ± 0.033
RTVITEEFKVPDKMVGFIIGRGGEQISRIQAESGCKIQIASESSGIPERPMVLTGTPESIEQAKRLLGQIVDRCRN [C51M] | -0.068 ± 0.043
RTVITEEFKVPDKMVGFIIGRGGEQISRIQAESGCKIQIASESSGIPERPFVLTGTPESIEQAKRLLGQIVDRCRN [C51F] | -0.009 ± 0.061
RTVITEEFKVPDKMVGFIIGRGGEQISRIQAESGCKIQIASESSGIPERPAVLTGTPESIEQAKRLLGQIVDRCRN [C51A] | -0.075 ± 0.036
RTVITEEFKVPDKMVGFIIGRGGEQISRIQAESGCKIQIASESSGIPERPQVLTGTPESIEQAKRLLGQIVDRCRN [C51Q] | -0.688 ± 0.066

Variant | abundance fitness
RTVITEEFKVPDKMVGFIIGRGGEQISRIQAESGCKIQIASESSGIPERPRVLTGTPESIEQAKRLLGQIVDRCRN [C51R] | -0.926 ± 0.042
RTVITEEFKVPDKMVGFIIGRGGEQISRIQAESGCKIQIASESSGIPERPDVLTGTPESIEQAKRLLGQIVDRCRN [C51D] | -0.633 ± 0.067
RTVITEEFKVPDKMVGFIIGRGGEQISRIQAESGCKIQIASESSGIPERPEVLTGTPESIEQAKRLLGQIVDRCRN [C51E] | -0.924 ± 0.06
RTVITEEFKVPDKMVGFIIGRGGEQISRIQAESGCKIQIASESSGIPERPNVLTGTPESIEQAKRLLGQIVDRCRN [C51N] | -0.634 ± 0.091
RTVITEEFKVPDKMVGFIIGRGGEQISRIQAESGCKIQIASESSGIPERPLVLTGTPESIEQAKRLLGQIVDRCRN [C51L] | -0.062 ± 0.035
RTVITEEFKVPDKMVGFIIGRGGEQISRIQAESGCKIQIASESSGIPERPGVLTGTPESIEQAKRLLGQIVDRCRN [C51G] | -0.206 ± 0.028
RTVITEEFKVPDKMVGFIIGRGGEQISRIQAESGCKIQIASESSGIPERPHVLTGTPESIEQAKRLLGQIVDRCRN [C51H] | -0.475 ± 0.092
RTVITEEFKVPDKMVGFIIGRGGEQISRIQAESGCKIQIASESSGIPERPSVLTGTPESIEQAKRLLGQIVDRCRN [C51S] | -0.366 ± 0.04
RTVITEEFKVPDKMVGFIIGRGGEQISRIQAESGCKIQIASESSGIPERPPVLTGTPESIEQAKRLLGQIVDRCRN [C51P] | -0.671 ± 0.066
RTVITEEFKVPDKMVGFIIGRGGEQISRIQAESGCKIQIASESSGIPERPYVLTGTPESIEQAKRLLGQIVDRCRN [C51Y] | -0.311 ± 0.065
RTVITEEFKVPDKMVGFIIGRGGEQISRIQAESGCKIQIASESSGIPERACVLTGTPESIEQAKRLLGQIVDRCRN [P50A] | -0.042 ± 0.031
RTVITEEFKVPDKMVGFIIGRGGEQISRIQAESGCKIQIASESSGIPERHCVLTGTPESIEQAKRLLGQIVDRCRN [P50H] | -0.04 ± 0.05
RTVITEEFKVPDKMVGFIIGRGGEQISRIQAESGCKIQIASESSGIPERYCVLTGTPESIEQAKRLLGQIVDRCRN [P50Y] | -0.113 ± 0.048
RTVITEEFKVPDKMVGFIIGRGGEQISRIQAESGCKIQIASESSGIPERGCVLTGTPESIEQAKRLLGQIVDRCRN [P50G] | -0.014 ± 0.026
RTVITEEFKVPDKMVGFIIGRGGEQISRIQAESGCKIQIASESSGIPERRCVLTGTPESIEQAKRLLGQIVDRCRN [P50R] | -0.06 ± 0.026
RTVITEEFKVPDKMVGFIIGRGGEQISRIQAESGCKIQIASESSGIPERLCVLTGTPESIEQAKRLLGQIVDRCRN [P50L] | -0.043 ± 0.03
RTVITEEFKVPDKMVGFIIGRGGEQISRIQAESGCKIQIASESSGIPERVCVLTGTPESIEQAKRLLGQIVDRCRN [P50V] | -0.031 ± 0.03
RTVITEEFKVPDKMVGFIIGRGGEQISRIQAESGCKIQIASESSGIPERCCVLTGTPESIEQAKRLLGQIVDRCRN [P50C] | -0.054 ± 0.047
